Here are results for one molecule from US20240352121A1, “LAIR-1 AGONISTIC ANTIBODIES AND METHODS OF USE THEREOF” (NEXTCURE, INC., priority 2023, published 2024).

For assay [1], the system named is MV4-11 cells. In words: Phospho-array on in vivo grown MV4-11 cells, subcutaneous CDX model. Also on record: species or system NSG mice. To be noted: 10 mg/kg weekly i.p. The procedure: NSG mice were injected with 2e6 THP-1 luciferase cells or 2e6 MV4-11-luciferase cells via tail vein injection. Leukemia progression was quantified by i.p. injection of 100 μL bioluminescent substrate and IVIS imaging 8 minutes post injection. Progression was assessed weekly staring on Day 7 post-challenge. 10 mg/kg mab treatment was performed by i.p injection starting on day 8 and continuing twice a week until the end of the study. For the subcutaneous engraftment model, NSG mice were subcutaneously injected on the right flank with 5e6 MV4-11-Luc-LAIR-1^OE cells. Mice were treated by weekly i.p. injection of 10 mg/kg mAb. Tumor growth was measured by calipers twice weekly until end point.

The subject of assay [2] is SHP-1. The assay can be described thus: SHP-1 phosphorylation in primary patient AML blasts (Western blot). It counts as cell-based, human. The procedure: FIGS. 4A-4O show the collagen matrix is vital to LAIR-1 induced AML cell death. (FIGS. 4A-C). Flow cytometry quantification of primary live, dead, or apoptotic total blood leukocytes after ex vivo treatment with 10 μg/mL IgG isotype control (gray) or LAIR-1 mAb (red) in the presence (FIG. 4A) or absence (FIG. 4B) of exogenous collagen, or (FIG. 4C), CD451^Lo SSC^Lo blast cells in the presence of isotype control or LAIR-1 mAb. N=3 technical replicates. […] Each dot represents an individual donor. Red shading highlights surface expression >20000 arbitrary units. Blue shading highlights expression <20000 units. Line represents simple linear regression. […] N=4-7 donors. […] Mean pixel density from Western blotting normalized to isotype control condition and graphed relative to total SHP-1. N=3 technical replicates. […] FIGS. 4M and 4N) 4E-BP1 expression as measured by Lumit assay (FIG. 4M) or cleaved caspase-7 as measured by Western blot (FIG. 4N) of cells treated as shown in FIGS. 4I-4K. […] P values calculated by Student's t test. […]
For assessment of signaling in healthy cells, human monocytes were isolated from PBMCs from two donors using a StemCell monocyte isolation kit (StemCell, Vancouver, BC). […] Data were quantified using FIJI (NIH, MD).
In general terms: Immunoblotting shows a protein as a band on a membrane.

Assay [3] concerns THP-1 cells. The assay can be described thus: THP-1-luciferase cell-derived xenograft (CDX) model. The format is in vivo, NSG mice. As to conditions: 10 mg/kg i.p. twice a week. The procedure:
FIGS. 29A-29C display h11B3 LAIR-1 mAbs, containing a variable light chain of SEQ ID NO: 16 and a variable heavy chain of SEQ ID NO:27, limits Leukemic cell growth in CDX Models. 2e6 luciferase-expressing MV4-11-Luc or THP-1-Luc cells were suspended in sterile PBS and implanted into NSG mice via tail-vein injection. Starting on day 8 post-challenge, mice were treated twice-weekly by intraperitoneal (i.p.) injection of 10 mg/kg of h11B3 LAIR-1 mAbs, containing a variable light chain of SEQ ID NO: 16 and a variable heavy chain of SEQ ID NO:27, or isotype (FIG. 29A). AML cell proliferation was monitored by weekly i.p. injection of D-Luciferin, immediately followed by IVIS bioluminescent imaging and quantification of luminescent signal. Mice NOD.Cg-Prkdcscid Il2rgtm1Wjl/SzJ (NSG) purchased from Jackson Labs strain #005557. Substrate Xenolight RediJect D-Luciferin Perkin Elmore Cat #770504. Imaging Perkin Elmore IVIS Lumina XRMS Series III.
NSG mice were injected with 2e6 THP-1 luciferase cells or 2e6 MV4-11-luciferase cells via tail vein injection. Leukemia progression was quantified by i.p. injection of 100 μL bioluminescent substrate and IVIS imaging 8 minutes post injection. Progression was assessed weekly staring on Day 7 post-challenge. […] Tumor growth was measured by calipers twice weekly until end point.

B1: LAIR-1 mAb: humanized agonist anti-LAIR-1 mAb, IgG1 backbone; h11B3 VL-2 (SEQ ID NO: 16), h11B3 VH-3 (SEQ ID NO: 27) (antibody, V domains shown)
VH: EVQLVESGGGLVQPGGSLKLSCAASGFTFNTNAMYWVRQAPGKGLEWVGRIRSKSSNYATYYAASVKGRFTISRDDSKNTLYLQMNSLKTEDTAVYYCVRGGSGFFAYWGQGTLVTVSS
VL: DIQMTQSPSSLSASLGDRVTITCKASEDIYIRLAWYQQKPGKAPRLLISTATSLETGVPSRFSGSGSGTDYTFTISSLQPEDIATYYCQQYWSTPYTFGGGTRLEIK
modifications: IgG1 constant regions; Synthetic: h11B3 VH-3; Synthetic: h11B3 VL-2
B1: in assay [1], the MAPK pathway result was “significantly suppressed”; the “activation of mTORC, AKT, and NF-kB” value is “inhibited activation”. Besides, the “increase of SHP-1 phosphorylation relative to control” value in assay [2] (LAIR-1 mAb alone) is 25%. Moreover, the “increase of SHP-1 phosphorylation relative to control” value in assay [2] (cotreatment with LAIR-1 mAb and collagen) is 50%. In assay [3], the “leukemic cell growth in vivo” value is given as “inhibited leukemic cell growth”.
